B1: EEHEE_rd4_0647 (parent)
chain: MQVTWGNVTVTFSNPEEAKKYAEKVARKLGGQVELHNGQFRIK
B2: HEEH_KT_rd6_0790 (parent)
chain: SEEEEEEWRRAKERGEEIIILGILWKPNDEEAERRIKEALRRV

Variants of: B1
Assay: folding stability dG (cDNA display proteolysis); higher = more stable
Details: PBS, room temperature

Folding stability dG [kcal/mol]: each site, then its substitutions
Q32: E 2.76 | F 3.08 | G 1.77 | H 2.89 | I 3.27 | K 2.92 | L 2.74 | M 2.78 | N 2.4 | P 1.33 | R 2.89 | S 3 | T 3.35 | V 3.29 | W 3.18 | Y 3.33
V33: A 1.82 | C 1.95 | D 0.259 | E 0.359 | F 1.85 | G 0.276 | H 0.75 | I 2.62 | K 0.686 | L 2.16 | M 1.86 | N 0.506 | P 1.22 | Q 0.541 | R 0.477 | S 1.11 | T 1.22 | W 2.13 | Y 2.07
E34: A 1.94 | D 2.11 | F 2.6 | G 1.41 | H 2.17 | I 2.83 | K 1.73 | L 2.21 | M 2.22 | N 1.6 | P 0.384 | Q 2.25 | R 1.78 | S 2.23 | T 2.44 | V 2.81 | W 2.2 | Y 2.78
L35: A 2.09 | C 2.78 | D 1.84 | E 2.5 | F 3.15 | G 1.48 | H 2.1 | I 2.83 | K 2.11 | M 2.82 | N 1.96 | P 1.3 | Q 2.28 | R 2.13 | S 2.04 | T 2.24 | V 2.83 | W 2.63 | Y 3.14
H36: A 2.51 | C 3.37 | D 2.53 | E 2.78 | F 2.79 | G 1.8 | I 3.34 | K 2.66 | L 2.89 | M 2.68 | N 2.33 | P 0.326 | Q 2.54 | R 2.58 | S 2.6 | T 2.6 | V 3.35 | W 2.85 | Y 2.79
N37: A 2.05 | D 2.69 | E 2.56 | F 1.9 | G 2.32 | H 2.14 | I 1.41 | K 2.26 | L 2.14 | M 2.11 | P 1.58 | Q 2.27 | R 1.92 | S 1.93 | T 1.36 | V 1.39 | W 1.32 | Y 1.7
G38: A 1.32 | C 2.88 | D 1.91 | E 1.44 | F 1.73 | H 3.93 | I 0.887 | K 1.81 | L 1.46 | M 1.65 | N 2.46 | P 0.661 | Q 1.67 | R 1.89 | S 1.6 | T 1.36 | V 0.809 | W 1.24 | Y 1.64
Q39: A 2.73 | C 2.68 | D 1.96 | E 2.72 | F 2.23 | G 3.07 | H 2.93 | I 3.09 | K 2.43 | L 2.1 | M 2.61 | N 2.75 | P 0.269 | R 2.45 | S 2.65 | T 2.69 | V 2.99 | W 1.7 | Y 2.29
F40: A 0.89 | C 1.51 | D 0.455 | E 0.453 | G 0.325 | H 1.07 | I 2.49 | K 0.481 | L 2.85 | M 1.95 | N 0.635 | P 0.658 | Q 0.812 | R 0.666 | S 0.308 | T 0.626 | V 1.46 | W 3.25 | Y 3.2
R41: A 2.05 | C 2.94 | D 1.31 | E 2.25 | F 3.5 | G 1.3 | H 3.02 | I 3.53 | K 2.53 | L 3.16 | M 2.95 | N 2.37 | P 0.495 | Q 2.66 | S 2.11 | T 2.84 | V 3.5 | W 3.15 | Y 3.35
I42: A 0.487 | C 1.95 | D 0.522 | E 0.453 | F 1.1 | G 0.609 | H 0.692 | K 0.538 | L 1.09 | M 0.646 | N 0.564 | P 0.784 | Q 0.449 | R 0.514 | S 0.574 | T 0.547 | V 2.52 | W 1.13 | Y 0.752
K43: A 2.57 | C 3.45 | D 1.93 | E 2.28 | F 2.96 | G 2.04 | H 2.66 | I 3.52 | L 3.2 | M 2.86 | N 2.59 | P 1.8 | Q 2.59 | R 2.98 | S 2.64 | T 3.14 | V 3.52 | W 2.67 | Y 2.88

Variants of: B2
Assay: as above
Details: PBS, room temperature

Folding stability dG [kcal/mol] of substitutions, site by site:
S1: A 2.38 | C 2.82 | D 2.12 | E 2.23 | F 2.71 | G 2.63 | H 2.67 | I 2.61 | K 2.1 | L 2.55 | M 2.5 | N 2.18 | P 2.23 | Q 2.15 | R 2.18 | T 2.36 | V 2.55 | W 2.77 | Y 2.74
E2: A 2.2 | C 2.63 | D 2.16 | F 2.7 | G 2.34 | H 2.52 | I 2.44 | K 2.19 | L 2.5 | M 2.45 | N 2.27 | P 2.21 | Q 2.29 | R 2.39 | S 2.61 | T 2.49 | V 2.33 | W 2.54 | Y 2.58
E3: A 2.33 | D 2.35 | F 2.37 | G 2.33 | H 2.33 | I 2.32 | K 2.46 | L 2.28 | M 2.24 | N 2.36 | P 2.29 | Q 2.33 | R 2.4 | S 2.49 | T 2.36 | V 2.33 | W 2.5 | Y 2.44
E4: A 2.68 | D 2.17 | F 2.78 | G 2.04 | H 2.41 | I 3.14 | K 1.92 | L 3.4 | M 2.82 | N 1.94 | P 2.5 | Q 2.2 | R 2.03 | S 2.21 | T 2.29 | V 2.71 | W 3.35 | Y 2.93
E5: A 1.74 | D 1.93 | F 2.13 | G 1.41 | H 1.8 | I 1.95 | K 1.36 | L 2.17 | M 2.1 | N 1.83 | P 1.91 | Q 1.6 | R 1.47 | S 1.73 | T 1.79 | V 1.73 | W 2.42 | Y 2.2
E6: A 1.99 | C 2.44 | D 2.09 | F 1.93 | G 1.46 | H 1.61 | I 1.77 | K 1.72 | L 1.93 | M 1.87 | N 1.85 | P 1.35 | Q 1.72 | R 1.65 | S 1.63 | T 1.58 | V 1.64 | W 2.09 | Y 2.08

Reference: the MegaScale stability set (Tsuboyama et al. 2023)
